Molecular target: T1, ARNO Sec7-domain (Homo sapiens, UniProt Q99418)
T1 construct: iii) 61-252aa, Sec7 domain; made in house; host or cells: E. coli BL21(DE3)
T1 sequence (Q99418 61-252): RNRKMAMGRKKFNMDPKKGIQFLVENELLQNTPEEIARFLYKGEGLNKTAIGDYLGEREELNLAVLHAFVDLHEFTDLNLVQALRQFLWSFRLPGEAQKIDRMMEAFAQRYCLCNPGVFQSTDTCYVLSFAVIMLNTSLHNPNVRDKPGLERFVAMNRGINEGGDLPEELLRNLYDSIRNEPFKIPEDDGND
Assay: GST pull-down of in vitro translated a2N with ARNO Sec7-domain
Format: binding
Settings: Western blot anti-a2N
Procedure: The purified recombinant GST-ARNO(wt) and GST-tagged ARNO domain constructs ([…]) were incubated with 10 μl of in vitro translated 6His-a2N recombinant protein at 4° C. for 2 hours in 500 μl of binding buffer (10 mM HEPES, 1 mM EDTA, 1 mM DTT, 100 mM NaCl, 10% glycerol, 0.1% NP-40) with gentle rotation. Then the interacting recombinant proteins were immobilized on glutathione beads by incubation with 50 μl of 50% glutathione Sepharose 4B slurry for 2 hours at 4° C. The beads were collected by centrifugation and washed 5 times with 500 μl ice-cold binding buffer. Interacting proteins were eluted by boiling in SDS-PAGE sample buffer for 10 min at 95° C., resolved by SDS-PAGE and analyzed by Western blotting using polyclonal anti-a2N antibodies. […]
To examine the ability of these well-defined and functionally distinct domains of ARNO to interact with a2N1-402, full-length ARNO(wt) and its four domains were cloned separately for bacterial expression of recombinant proteins (FIG. 3). […] Interacting proteins were detected by western blot analysis with a2-specific antibodies as described above.

B1: a2N: recombinant N-terminal cytosolic tail, amino acid residues 1-402 of mouse V-ATPase a2-subunit (protein)
chain: MGSLFRSESMCLAQLFLQSGTAYECLSALGEKGLVQFRDLNQNVSSFQRKFVGEVKRCEELERILVYLVQEITRADIPLPEGEASPPAPPLKHVLEMQEQLQKLEVELREVTKNKEKLRKNLLELVEYTHMLRVTKTFLKRNVEFEPTYEEFPALENDSLLDYSCMQRLGAKLGFVSGLIQQGRVEAFERMLWRACKGYTIVTYAELDECLEDPETGEVIKWYVFLISFWGEQIGHKVKKICDCYHCHIYPYPNTAEERREIQEGLNTRIQDLYTVLHKTEDYLRQVLCKAAESVCSRVVQVRKMKAIYHMLNMCSFDVTNKCLIAEVWCPEVDLPGLRRALEEGSRESGATIPSFMNTIPTKETPPTLIRTNKFTEGFQNIVDAYGVGSYREVNPALFTII
modifications: left off: small tags and cut ends
notes: recombinant N-terminal cytosolic tail, amino acid residues 1-402 of mouse V-ATPase a2-subunit
interaction of a2N with ARNO Sec7-domain: interacts strongly
